Experimental data from patent US11034736B2, “Anti-viral cnidarins” (priority 2014, dated 2021).
Where “and” joins values, the source holds several entries; their conditions need not be identical. Identical values can stand only once. Like-named read-outs stand apart in the source and are kept apart here.

What was measured:
HIV-1US/92/727 = assay: Anti-HIV evaluation in PHA-stimulated human PBMCs, reverse transcriptase in supernatant; type: cell-based; settings: HIV-1US/92/727, human PBMCs, 7 days
Experimental: (§1) The cultures were incubated for 7 days at 37° C./5% CO2. Efficacy of the compounds was evaluated by measuring the amount of reverse transcriptase in the culture supernatant and toxicity was evaluated using XTT to measure cell viability. AZT was evaluated in parallel as an assay control.

in vitro = settings: human
Experimental: as §1

HIV-1RF = assay: XTT-tetrazolium anti-HIV assay, HIV-1RF in CEM-SS cells; type: cell-based; settings: for EC50: HIV-1RF, T-tropic laboratory strain, CEM-SS cells, XTT, 6 days
Experimental: (§2) A 2,3-bis-[2-methoxy-4-nitro-5-sulfophenyl]-2H-tetrazolium-5-carboxanilide inner salt (XTT)-tetrazolium-based assay was used to determine the anti-HIV activity of CNID-1, -2 and -3 against a T-tropic laboratory strain (HIV-1RF) in T-lymphoblastic CEM-SS cells as described previously (Gulakowski et al., J. Virol. Methods, 33: 87-100 (1991)). CEM-SS cells were maintained in RPMI 1640 media without phenol red and supplemented with 10% fetal bovine serum (BioWhittaker), 2 mM L-glutamine (BioWhittaker), and 50 μg/ml gentamicin (BioWhittaker) (complete medium). Exponentially growing cells were washed and resuspended in complete medium, and a 50 μl aliquot containing 5×10^3 cells was added to individual wells of a 96-well round-bottom microtiter plate containing serial dilutions of the respective cnidarin protein in a volume of 100 μl of medium. Stock supernatants of HIV-1RF were diluted in complete medium to yield sufficient cytopathicity (80-90% cell kill in 6 days), and a 50 μl aliquot was added to appropriate wells. Plates were incubated for 6 days at 37° C. and then stained for cellular viability using XTT.
(§3) The HIV reverse transcriptase inhibitor 3′-Azido-3′-deoxythymidine (AZT) was used as a positive control. All assays were carried out in triplicate for all viruses and cells.

HIV-1IIIB gp120 [1] = target: T1, HIV-1IIIB gp120 (Human immunodeficiency virus type 1 group M subtype B, UniProt P04578); settings: ELISA, 100 ng/well gp120
Experimental: High protein binding Greiner 96-well plates (VWR, Bridgeport, N.J.) were coated with 1 pmol/well of recombinant HIV-1IIIIB gp120 (Immuno Diagnostics, Woburn, Mass.) or recombinant HIV-1HXB2 gp41 (Vybion Inc., Ithaca, N.Y.) at 4° C. overnight. The wells were emptied and then blocked with 200 μl/well of 3% non-fat dry milk (Bio-Rad, Hercules, Calif.) blocking solution for 2 hrs. A control plate was incubated with blocking solution only. After washing three times with PBST, 0.5-log10 serial dilutions of rCNID-1-Trx were added to triplicate wells of gp120−, gp41− and the blocking solution control plate, and the plates were incubated for 2 hrs. The plates were washed with PBST and 100 W/well of a 1:250 dilution of polyclonal rabbit anti-CNID-1 antibody was added and allowed to incubate for 1 hr, followed by three washes with PBST. Goat anti-rabbit (H+L), peroxidase conjugated secondary antibody (Thermo Fisher Scientific Inc., Rockford, Ill.) was added to each well (100 μl/well of a 1:1000 dilution) and further incubated for 1 hr, followed by three washes with PBST. The TMB 2-component Microwell peroxidase substrate kit (KPL Inc., Gaithersburg, Md.) was used for peroxidase detection: 100 W/well, incubation for 5-10 min and the reaction was stopped by addition of 0.5M HCl (100 W/well) before reading the absorbance at 450 nm.
Briefly, 100 ng/wells of glycosylated recombinant HIV-1IIIB gp120 (Immuno Diagnostics, Woburn, Mass.) or nonglycosylated HIV-1 gp120 (MyBioSource LLC, San Diego, Calif.) was added to the wells of two 96-well plates, and incubated overnight at 4° C. The plates were washed and blocked as previously described. Serial dilutions of rCNID-1-Trx were added (100 W/well); incubation done for 2 hrs. The plates were then washed and visualized using anti-CNID-1 polyclonal antibodies as above.

HIV-1IIIB gp120 [2] = target: T1, HIV-1IIIB gp120
Experimental: Recombinant CNID-1 (in fusion with Trx and rEK cleaved forms of rCNID-1) and recombinant HIV-1IIIIB gp120 (Immuno Diagnostics, Woburn, Mass.) controls were resolved on 4-12% Bis-Tris pre-cast SDS-PAGE gels (Life Technologies, Grand Island, N.Y.) and blotted onto polyvinylidine difluoride membranes. Membranes were blocked with 3% BSA for 2 hours. For CNID-1 detection, the membrane was incubated overnight with rabbit anti-CNID-1 (1:2000 dilution). For detection of rCNID-1 binding to gp120, membranes were incubated overnight with 1 μg/ml rgp120, then washed thrice with PBST before being incubated with polyclonal rabbit anti-gp120 (1:1000 dilution) overnight. Membranes were washed three times with PBST and further incubated with goat anti-rabbit (H+L), peroxidase conjugated secondary antibody (Thermo Fisher Scientific Inc., Rockford, Ill.) at a 1:1000 dilution for 1 hr. After washing with PBST, signals were detected on Hyblot CL autoradiography film (Denville Scientific, Metuchen, N.J.) using the SignalFire ECL reagent system (Cell Signaling Technology Inc., Danvers, Mass.) according to the manufacturer's protocol.

HIV-1IIIB [3] = assay: Viral attachment assay, cell-associated p24 antigen in HeLa CD4 LTR β-gal cells; type: cell-based
Experimental: (§4) Attachment and fusion assays were performed in HeLa-CD4-LTR-β-galactosidase cell lines as described previously (Gartner & Popovic, (1990), supra) with the following modifications. Following the interaction of HIV-1IIIIIB with HeLa CD4 LTR β-gal cells, viral attachment to HeLa CD4 LTR β-gal cells was detected as cell-associated p24 antigen following a 1 hour adsorption of virus and vigorous washing for removal of unbound virus. Fusion of HIV-1IIIIB with HeLa CD4 LTR β-gal cells was detected by chemiluminescence using a single-step lysis and detection method (Tropix Gal-screen, Bedford, Mass.) and results reported as EC50 values. Chicago Sky Blue, a polysulfonic acid dye inhibitor of HIV attachment and fusion, was used as a positive control for all assays (Clanton et al., J. Acquired Immune Defic. Syndr., 5: 771-781 (1992)).

PBMC = assay: Cell viability of PBMC cultures (CellTiter formazan dye reduction); type: cell-based, human
Text: (§5) To test the anti-HIV activity of CNID1 against HIV primary isolates in fresh human cells, monocyte-tropic HIV-1 strain Ba-L was obtained from the NIAID AIDS Research and Reference Reagent Program (National Institutes of Health, Bethesda, Md.). The low passage HIV-1 pediatric isolate ROJO was derived as described previously (Buckheit et al., AIDS Res. Hum. Retroviruses, 10: 1497-1506 (1994)). Human peripheral blood mononuclear cells (PBMCs) and macrophages were isolated from hepatitis and HIV seronegative donors following Ficoll-Paque centrifugation as described elsewhere (Gartner & Popovic, Techniques in HIV Research, Aldovini, A. and Walker B., eds., pp. 59-63, Stockton Press, New York, 1990). Antiviral assays were carried out with 3-day-old phytohaemagglutinin/interleukin-2 stimulated PBMCs or 6-day-cultured monocyte/macrophages. […] HIV-1 replication in PBMC (ROJO) or monocyte macrophage (Ba-L) cultures were determined by measurement of reverse transcriptase activity (Buckheit et al., Antiviral Res., 21: 247-265 (1993)) in the supernatants or p24 antigen expression by ELISA (Coulter, Hialeah, Fla.), respectively. Cell viability by formazan dye reduction was determined in replicated cultures using the CellTiter reagent (Promega, Madison, Wis.). […]

Macrophage = assay: Cell viability of monocyte/macrophage cultures (CellTiter formazan dye reduction); type: cell-based, human; settings: macrophages
Text: as §5

HIV-1ROJO = assay: HIV-1 ROJO replication in human PBMC cultures, supernatant reverse transcriptase activity; type: cell-based; settings: T-tropic primary isolate
Text: as §5

HIV-1IIIB [4] = assay: Viral fusion assay, chemiluminescence in HeLa CD4 LTR β-gal cells; type: cell-based
Experimental: as §4

CEM-SS cells = assay: Direct toxicity to uninfected CEM-SS control cells (XTT); type: cell-based, human
Experimental: as §2, §3

[5] = tested on: HeLa CD4 LTR β-galactosidase cells; assay: Cytotoxicity in the attachment and fusion assays; type: cell-based
Experimental: as §3, §4

human PBMCs = assay: Toxicity in PHA-stimulated human PBMCs, XTT cell viability; settings: human PBMCs, XTT, 7 days
Experimental: as §1

## Cc1cn([C@H]2C[C@H](N=[N+]=[N-])[C@@H](CO)O2)c(=O)[nH]c1=O [AZT, 3′-Azido-3′-deoxythymidine, reference compound]
HIV-1US/92/727; Human immunodeficiency virus 1, PBMC, 168 h, read-out: EC50
  EC50: 1.88 nM
In vitro
  CC50 at 7 days: > 1000 nM

B1: rCNID-1-Trx: thioredoxin-hexahistidine-CNID-1 fusion protein expressed in E. coli (protein)
chain: GRATLGQLKTSTIPPVTFDVPFDGANIPQDVRFTIATVNGGKGALYNAELGESAGHTIVLESDGDHPIPGTFDPKSGRGLDYLPRGLVLFSSHNYVGNMKMYTEPDSDITADFPPGTPFGVSSAITGEGSAFQLNTGIDHTGEFEIIPPNTKRNLAGVFDNEIRSVSPTGGK
modifications: left off: large carriers; small tags and cut ends
notes: thioredoxin-hexahistidine-CNID-1 fusion protein expressed in E. coli
HIV-1RF; CaCl2 presence
  Activity after extraction and refolding from inclusion bodies: low-to-partially active
HIV-1RF; absence of CaCl2
  Activity after extraction and refolding from inclusion bodies: inactive
HIV-1IIIB gp120 [1]
  Binding to gp120: binds to HIV-1 glycoproteins, gp120
HIV-1IIIB gp120 [2]
  Binding to gp120 by immunoblot: specific binding

B2: rCNID-1 truncated forms: truncated forms of rCNID-1 (~14-16 kDa) from enterokinase digestion of rCNID-1-Trx (protein)
chain: GRATLGQLKTSTIPPVTFDVPFDGANIPQDVRFTIATVNGGKGALYNAELGESAGHTIVLESDGDHPIPGTFDPKSGRGLDYLPRGLVLFSSHNYVGNMKMYTEPDSDITADFPPGTPFGVSSAITGEGSAFQLNTGIDHTGEFEIIPPNTKRNLAGVFDNEIRSVSPTGGK
HIV-1RF
  EC50: 45 to 150 nM
HIV-1IIIB gp120 [2]
  Binding to gp120 by immunoblot: specific binding

B3: CNID-3: HIV-inhibitory protein from soft coral Synthecium sp.; 170 amino acids, 17,963 Da, SEQ ID NO: 3 (protein)
chain: GKSAYPGQITSDVPFVTFDVPFDGVNIPQDVRFTIATVNGGKLALYNAKLGDPANNTIVLESDGDHPIPGTFDDPKGRGLDYAFGGLLLFSFHNFVGHKKLYREPDSDITADFPPGLGGSSAITGEGSTVQLYTGIDFTGISEIMPVNTKRNFVVAFGNEFKSVSPTGGG
HIV-1IIIB [3]
  Inhibition of viral attachment to the cell: not attachment
HIV-1IIIB [3]; read-out: Inhibition of Attachment EC50
  EC50: > 55.7 nM
PBMC
  CC50: 155 nM
Macrophage
  CC50: 4.62 nM
HIV-1ROJO
  EC50: 1.55 nM and 1.5 nM
HIV-1RF
  EC50: 0.114 nM
HIV-1IIIB [4]
  Inhibition of viral fusion: inhibit HIV viral fusion
HIV-1IIIB [4]; read-out: Inhibition of Fusion EC50
  EC50: 2.06 nM
HIV-1US/92/727
  EC50: 0.0160 µg/mL
CEM-SS cells
  CC50: > 199 nM
[5]; attachment assay, read-out: Inhibition of Attachment CC50
  CC50: > 55.7 nM
[5]; fusion assay, read-out: Inhibition of Fusion CC50
  CC50: > 55.7 nM
Human PBMCs
  TC50: >0.5 µg/mL
